Results published in publication PMC7530888.

Target: GST-tagged MtbXthA (M. tuberculosis class II AP-endonuclease/3'-5' exonuclease XthA) (M. tuberculosis) (UniProt P96273)
Experiment: SPR

Work on “BRCT domain of MtbLigA, His-tagged (from UniProt P9WNV1 1-691) (domain or fragment)” yielded a Kd of 67.7 nM.
